Earlier results, collected in paper PMC6387150.

Biological target: IL-18 (Homo sapiens) (UniProt Q14116)
Sequence (Q14116 37-193): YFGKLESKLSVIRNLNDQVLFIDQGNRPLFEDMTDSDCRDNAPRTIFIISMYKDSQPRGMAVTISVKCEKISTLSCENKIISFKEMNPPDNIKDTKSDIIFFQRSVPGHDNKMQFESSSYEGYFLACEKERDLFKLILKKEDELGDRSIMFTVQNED

IL-18BP, sequence (O95998 31-194): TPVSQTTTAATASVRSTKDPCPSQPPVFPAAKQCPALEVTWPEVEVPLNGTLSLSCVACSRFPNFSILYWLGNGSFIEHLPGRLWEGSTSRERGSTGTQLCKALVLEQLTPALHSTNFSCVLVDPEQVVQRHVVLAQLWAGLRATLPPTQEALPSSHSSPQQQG

IL-18BP (from UniProt O95998)
Kd: 0.4 nM
